Here are results for 2 molecules from patent publication US20250002610A1 (Genmab, published 2025).

Test [1] has as its target T1, cynomolgus monkey DR4 with death domain deletion on ExpiCHO-S cells (cynomolgus monkey (Macaca fascicularis)).
T1 construct: also called cynomolgus DR4
T1 chain: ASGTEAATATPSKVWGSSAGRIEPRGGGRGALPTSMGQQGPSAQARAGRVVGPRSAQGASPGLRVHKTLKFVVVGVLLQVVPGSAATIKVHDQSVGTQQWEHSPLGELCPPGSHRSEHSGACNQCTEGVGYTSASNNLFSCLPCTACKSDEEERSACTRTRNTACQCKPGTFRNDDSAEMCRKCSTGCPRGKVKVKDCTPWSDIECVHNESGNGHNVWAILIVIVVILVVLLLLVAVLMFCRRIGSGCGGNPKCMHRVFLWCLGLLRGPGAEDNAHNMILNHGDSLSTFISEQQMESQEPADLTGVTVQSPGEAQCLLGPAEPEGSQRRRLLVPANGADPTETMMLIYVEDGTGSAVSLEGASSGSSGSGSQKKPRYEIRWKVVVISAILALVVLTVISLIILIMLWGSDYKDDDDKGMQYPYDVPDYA
Description: flow cytometry, ExpiCHO-S cells expressing cynomolgus monkey DR4, n = 1. On the procedure:
Binding of BisG1-FAPα-FERL/DR4-FERR, BisG1-DR4-FEAL/b12-FEAR and IgG1-DR4-FERR to DR4 of various species commonly used for nonclinical toxicology studies was assessed by flow cytometry using ExpiCHO-S cells transiently expressing DR4 from different animal species. In contrast to other species, rodents only express one DR which has highest homology with human DR5. Therefore, ExpiCHO-S cells transiently expressing rat and mouse DR protein were used instead. All DR constructs lack the intracellular DD to avoid apoptosis of transfected cells upon DR(4) activation. IgG1-b12 was used as negative control.

Test [2] deals with T2, FcγRIIa-H131 (CD32A Protein, Human, Recombinant (167 His, His Tag)) (human, UniProt P12318 34-218, limits assumed).
T2 construct: Bought reagent; not shown: His tag
T2 sequence (looked up): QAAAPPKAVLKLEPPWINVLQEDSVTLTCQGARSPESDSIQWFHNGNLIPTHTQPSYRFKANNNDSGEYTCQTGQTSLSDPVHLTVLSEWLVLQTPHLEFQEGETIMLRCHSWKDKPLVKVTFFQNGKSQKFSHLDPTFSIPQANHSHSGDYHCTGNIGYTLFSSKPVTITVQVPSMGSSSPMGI
Description: SPR (Biacore 8K), His-tagged FcγRIIa-H131 captured on an anti-His chip, antibody as analyte, endpoint response against concentration. On the procedure:
(§1) Binding of BisG1-FAPα-FERL/DR4-FERR to immobilized human His-tagged FcγRs and FcRn was analyzed by SPR using a Biacore 8K SPR system (Cytiva). To this end, anti-His antibodies were covalently immobilized on the surface of Biacore Series S Sensor Chip CM5 (Cytiva, Cat. #29104988) using the Amine Coupling Kit (Cytiva, Cat. #BR100050) and a His Capture Kit (Cytiva, Cat. #29234602) according to the manufacturer's instructions. To assess antibody binding to immobilized human FcγRs, aliquots of the recombinant His-tagged FcγR proteins (Table 24) were diluted in HBS EP+Buffer pH 7.4 (Cytiva, Cat. #BR100669) and used to capture the FcγR proteins on the surface of the anti-His antibody-coated sensors using a flow rate of 10 μL/min and a contact time of 60 s. Captured levels ranged from 434 to 592 RU. After three start-up cycles of HBS-EP+Buffer, concentration ranges of BisG1-FAPα-FERL/DR4-FERR or IgG1-b12 antibodies (Table 25) were injected to generate binding curves on FcγR-captured sensors (active surface). For each antibody sample, a parallel flow cell without captured FcγRs was included (reference surface), which was used for RU background correction.
(§2) All sensorgrams were subtracted by the signal of the third start-up cycle with buffer only (mock analyte). […]
On the technique in general: Surface plasmon resonance follows binding to a sensor surface in real time, without labels.

Test [3] deals with T3, FcγRIIIa-F158 (CD16a Protein, Human, Recombinant (ECD, 176 Phe, His & AVI Tag)) (human, UniProt P08637 17-208).
T3 construct: extracellular domain; Bought reagent; not shown: His & AVI tag
T3 sequence (P08637 17-208): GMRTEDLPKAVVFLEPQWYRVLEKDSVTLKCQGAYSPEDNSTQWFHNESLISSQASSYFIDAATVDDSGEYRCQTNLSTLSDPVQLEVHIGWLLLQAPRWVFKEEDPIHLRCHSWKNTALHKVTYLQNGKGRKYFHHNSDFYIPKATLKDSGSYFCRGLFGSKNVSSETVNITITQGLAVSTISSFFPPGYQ
The test is described as follows: SPR (Biacore 8K), His-tagged FcγRIIIa-F158 captured on an anti-His chip, antibody as analyte, endpoint response against concentration. On the procedure: as §1, §2

B1: IgG1-DR4-FERR (antibody, V domains shown)
VH: QVQLQESGPGLVKPSGTLSLTCAVSGGSISSYSWWSWIRQPPGKGLEWIGELYHSGSTNYNPSLKSRVTISVDKSKNQFSLKLRSVTAADTAVYYCVRGVATIDYWGQGTLVTVSS
VL: QSALTQPPSASGSPGQSVTISCTGTSSDVGGYNFVSWYQQDPGKAPKLLIYEVTKRPSGVPDRFSGSKSGNTASLTVSGLQAEDEADYYCSSYAGSNNVMFGGGTKLTVLG
notes: Bivalent monoclonal IgG1 lambda
For the molecule B1, a half-maximal effect in test [1] (EC50) was put at 2.57 µg/mL.

B2: IgG1-b12 (antibody)
heavy: not shown
light: EIVLTQSPGTLSLSPGERATFSCRSSHSIRSRRVAWYQHKPGQAPRLVIHGVSNRASGISDRFSGSGSGTDFTLTITRVEPEDFALYYCQVYGASSYTFGQGTKLERKRTVAAPSVFIFPPSDEQLKSGTASVVCLLNNFYPREAKVQWKVDNALQSGNSQESVTEQDSKDSTYSLSSTLTLSKADYEKHKVYACEVTHQGLSSPVTKSFNRGEC
notes: HIV gp120 antibody b12 with wild-type IgG1 Fc; also called IgG-b12
As for B2, the binding result in test [2] and in test [3] was “binds” in each case.
